In the supplement of paper PMC10065799, “High-throughput profiling of sequence recognition by tyrosine kinases and SH2 domains using bacterial peptide display” (eLife, 2023):

Columns and labels:
[1] = target: SHP2-C SH2; assay: SH2 binding enrichment of the phosphorylated peptide, bacterial display (enrichment ratio); higher = better substrate or ligand; peptides without Tyr show the background
[2] = target: Grb2 SH2 (UniProt P62993); assay: as above
[3] = target: c-Src SH2; assay: as above
[4] = target: Hck (UniProt P08631); assay: phosphorylation enrichment, bacterial display (enrichment ratio); higher = better substrate or ligand; peptides without Tyr show the background
[5] = target: FGFR1 (UniProt P11362); assay: as above
[6] = target: MERTK (UniProt Q12866); assay: as above
[7] = system: c-Abl (mouse); assay: as above
[8] = target: Fes (UniProt P07332); assay: as above
[9] = system: Fer (mouse); assay: as above
[10] = system: AncSZ; assay: as above
[11] = target: Fyn (UniProt P06241); assay: as above
[12] = target: EPHB1 (UniProt P54762); assay: as above
[13] = system: c-Src; assay: as above
[14] = target: FGFR3 (UniProt P22607); assay: as above
[15] = target: EPHB2 (UniProt P29323); assay: as above
[16] = target: Jak2 (UniProt O60674); assay: as above
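For SH2 binding enrichment of the phosphorylated peptide, bacterial display in this document: peptide library displayed on the E. coli surface as eCPX fusions, selected cells deep-sequenced, score is each peptide's frequency after selection divided by its frequency in the input.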
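For phosphorylation enrichment, bacterial display in this document: 11-residue human phosphosite peptides and single-mutation variants displayed on the E. coli surface, counted by deep sequencing, each peptide's frequency after selection divided by its frequency in the unselected input library; frequency after pTyr selection over input frequency; kinase dosed for 20-30% of maximal phosphorylation in three min.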

Chain of Fyn (P06241 whole entry, looked up): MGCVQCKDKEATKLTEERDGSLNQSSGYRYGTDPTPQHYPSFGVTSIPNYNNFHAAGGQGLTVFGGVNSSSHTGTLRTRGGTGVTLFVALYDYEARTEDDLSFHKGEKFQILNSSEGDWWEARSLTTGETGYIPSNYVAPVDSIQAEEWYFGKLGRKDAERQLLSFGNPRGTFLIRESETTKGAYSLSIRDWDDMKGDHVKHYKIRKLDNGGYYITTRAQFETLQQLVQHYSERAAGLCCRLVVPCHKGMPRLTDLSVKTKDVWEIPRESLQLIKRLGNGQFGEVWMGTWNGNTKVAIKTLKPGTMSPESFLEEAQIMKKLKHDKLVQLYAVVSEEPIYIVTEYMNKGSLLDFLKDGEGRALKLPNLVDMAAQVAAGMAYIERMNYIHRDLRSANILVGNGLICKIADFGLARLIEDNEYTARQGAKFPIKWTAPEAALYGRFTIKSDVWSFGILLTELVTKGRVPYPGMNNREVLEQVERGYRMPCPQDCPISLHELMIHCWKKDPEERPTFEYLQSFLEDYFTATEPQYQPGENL
Chain of Jak2 (O60674 whole entry, looked up, the tested form may be a part): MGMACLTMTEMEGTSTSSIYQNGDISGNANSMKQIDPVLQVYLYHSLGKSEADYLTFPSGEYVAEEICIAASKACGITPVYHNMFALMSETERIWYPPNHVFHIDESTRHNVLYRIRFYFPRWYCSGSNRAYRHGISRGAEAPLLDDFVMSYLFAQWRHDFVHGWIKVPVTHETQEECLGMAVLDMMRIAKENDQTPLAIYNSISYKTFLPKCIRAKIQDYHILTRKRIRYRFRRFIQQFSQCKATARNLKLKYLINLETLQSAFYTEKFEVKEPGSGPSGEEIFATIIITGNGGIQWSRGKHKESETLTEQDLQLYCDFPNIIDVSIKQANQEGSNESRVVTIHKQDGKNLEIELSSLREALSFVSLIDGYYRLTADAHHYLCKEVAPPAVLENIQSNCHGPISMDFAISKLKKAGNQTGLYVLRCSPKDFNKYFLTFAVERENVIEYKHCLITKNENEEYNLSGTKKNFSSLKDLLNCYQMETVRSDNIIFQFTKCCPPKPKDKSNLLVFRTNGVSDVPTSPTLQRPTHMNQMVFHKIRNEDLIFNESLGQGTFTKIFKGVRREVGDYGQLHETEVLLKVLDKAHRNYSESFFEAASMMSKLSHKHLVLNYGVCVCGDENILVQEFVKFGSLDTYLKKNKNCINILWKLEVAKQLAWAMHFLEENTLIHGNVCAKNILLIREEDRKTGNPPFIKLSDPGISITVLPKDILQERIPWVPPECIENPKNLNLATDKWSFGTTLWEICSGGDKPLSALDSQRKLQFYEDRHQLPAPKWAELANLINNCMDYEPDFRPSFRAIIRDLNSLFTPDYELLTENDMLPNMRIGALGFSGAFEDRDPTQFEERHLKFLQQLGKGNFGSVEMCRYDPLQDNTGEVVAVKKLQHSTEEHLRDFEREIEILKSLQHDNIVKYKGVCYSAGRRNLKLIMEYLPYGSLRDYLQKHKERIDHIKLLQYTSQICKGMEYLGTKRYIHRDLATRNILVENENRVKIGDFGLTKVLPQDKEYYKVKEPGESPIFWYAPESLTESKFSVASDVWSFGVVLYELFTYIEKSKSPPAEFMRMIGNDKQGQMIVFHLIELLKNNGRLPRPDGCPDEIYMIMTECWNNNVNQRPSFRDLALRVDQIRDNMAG
Chain of EPHB2 (P29323 whole entry, looked up): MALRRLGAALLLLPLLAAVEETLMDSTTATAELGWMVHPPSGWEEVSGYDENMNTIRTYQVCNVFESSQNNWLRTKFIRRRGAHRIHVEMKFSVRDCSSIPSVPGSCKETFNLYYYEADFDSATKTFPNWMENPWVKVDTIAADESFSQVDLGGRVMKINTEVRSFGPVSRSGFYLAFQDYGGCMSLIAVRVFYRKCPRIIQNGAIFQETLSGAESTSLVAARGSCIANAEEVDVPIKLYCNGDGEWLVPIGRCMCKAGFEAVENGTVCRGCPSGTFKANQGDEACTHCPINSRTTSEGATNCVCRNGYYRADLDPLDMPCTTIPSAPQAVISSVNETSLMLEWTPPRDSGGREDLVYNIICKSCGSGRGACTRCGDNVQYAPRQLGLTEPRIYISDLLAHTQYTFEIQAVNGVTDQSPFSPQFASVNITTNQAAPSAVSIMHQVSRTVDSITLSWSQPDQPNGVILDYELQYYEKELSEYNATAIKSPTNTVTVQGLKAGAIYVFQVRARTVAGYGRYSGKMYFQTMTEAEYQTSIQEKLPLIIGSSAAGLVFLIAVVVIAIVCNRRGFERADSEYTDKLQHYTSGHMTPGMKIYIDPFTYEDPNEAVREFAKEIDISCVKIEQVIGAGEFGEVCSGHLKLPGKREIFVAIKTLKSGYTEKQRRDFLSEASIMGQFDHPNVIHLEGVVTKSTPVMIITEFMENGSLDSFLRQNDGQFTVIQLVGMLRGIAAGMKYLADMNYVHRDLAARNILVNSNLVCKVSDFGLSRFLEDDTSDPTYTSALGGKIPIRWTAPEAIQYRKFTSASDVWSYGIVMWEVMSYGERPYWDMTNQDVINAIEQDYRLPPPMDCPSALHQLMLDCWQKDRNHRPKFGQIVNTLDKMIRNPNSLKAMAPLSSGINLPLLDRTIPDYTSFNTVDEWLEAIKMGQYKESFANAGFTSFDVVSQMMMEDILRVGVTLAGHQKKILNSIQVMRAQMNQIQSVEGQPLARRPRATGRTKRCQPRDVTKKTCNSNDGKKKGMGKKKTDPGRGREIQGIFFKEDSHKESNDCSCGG
Chain of Hck (P08631 whole entry, looked up): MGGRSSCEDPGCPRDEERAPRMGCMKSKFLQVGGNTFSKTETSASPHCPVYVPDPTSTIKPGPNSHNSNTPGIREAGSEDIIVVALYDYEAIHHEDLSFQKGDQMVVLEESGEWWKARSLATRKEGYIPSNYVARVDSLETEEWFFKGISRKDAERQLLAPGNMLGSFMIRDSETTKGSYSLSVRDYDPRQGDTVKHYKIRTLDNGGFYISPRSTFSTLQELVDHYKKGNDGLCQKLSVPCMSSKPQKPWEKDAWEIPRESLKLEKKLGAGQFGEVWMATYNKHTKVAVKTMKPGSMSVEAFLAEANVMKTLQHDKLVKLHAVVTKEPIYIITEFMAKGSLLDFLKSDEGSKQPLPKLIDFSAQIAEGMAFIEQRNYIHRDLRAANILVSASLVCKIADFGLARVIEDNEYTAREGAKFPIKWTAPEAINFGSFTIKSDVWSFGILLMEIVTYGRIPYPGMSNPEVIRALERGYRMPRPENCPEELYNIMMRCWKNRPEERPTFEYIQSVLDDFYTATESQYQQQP
Chain of EPHB1 (P54762 whole entry, looked up): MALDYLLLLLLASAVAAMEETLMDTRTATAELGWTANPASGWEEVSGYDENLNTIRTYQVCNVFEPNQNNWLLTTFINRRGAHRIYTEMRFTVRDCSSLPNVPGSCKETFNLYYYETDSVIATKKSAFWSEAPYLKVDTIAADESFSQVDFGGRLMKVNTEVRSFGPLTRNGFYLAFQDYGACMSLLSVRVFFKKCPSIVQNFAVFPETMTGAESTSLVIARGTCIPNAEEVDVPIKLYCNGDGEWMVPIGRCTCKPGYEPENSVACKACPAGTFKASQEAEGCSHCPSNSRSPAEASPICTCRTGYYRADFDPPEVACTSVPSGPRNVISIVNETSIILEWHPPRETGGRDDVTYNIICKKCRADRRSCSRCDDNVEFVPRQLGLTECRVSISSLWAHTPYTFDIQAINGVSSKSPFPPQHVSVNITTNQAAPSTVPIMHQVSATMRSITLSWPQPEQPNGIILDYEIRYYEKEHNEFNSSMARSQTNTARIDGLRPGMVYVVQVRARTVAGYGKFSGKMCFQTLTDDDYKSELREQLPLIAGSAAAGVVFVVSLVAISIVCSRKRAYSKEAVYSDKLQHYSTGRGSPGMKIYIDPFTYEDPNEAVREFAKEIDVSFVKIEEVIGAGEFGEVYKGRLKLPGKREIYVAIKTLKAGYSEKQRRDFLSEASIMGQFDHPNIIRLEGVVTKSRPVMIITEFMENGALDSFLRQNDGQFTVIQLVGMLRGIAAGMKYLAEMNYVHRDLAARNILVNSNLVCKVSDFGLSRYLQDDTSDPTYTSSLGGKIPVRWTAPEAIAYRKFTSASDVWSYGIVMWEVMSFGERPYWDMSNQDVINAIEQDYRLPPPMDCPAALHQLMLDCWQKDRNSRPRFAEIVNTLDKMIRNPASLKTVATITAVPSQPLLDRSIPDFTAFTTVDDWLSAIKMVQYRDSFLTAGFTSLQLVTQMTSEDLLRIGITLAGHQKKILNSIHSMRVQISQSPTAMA
Chain of FGFR1 (P11362 whole entry, looked up): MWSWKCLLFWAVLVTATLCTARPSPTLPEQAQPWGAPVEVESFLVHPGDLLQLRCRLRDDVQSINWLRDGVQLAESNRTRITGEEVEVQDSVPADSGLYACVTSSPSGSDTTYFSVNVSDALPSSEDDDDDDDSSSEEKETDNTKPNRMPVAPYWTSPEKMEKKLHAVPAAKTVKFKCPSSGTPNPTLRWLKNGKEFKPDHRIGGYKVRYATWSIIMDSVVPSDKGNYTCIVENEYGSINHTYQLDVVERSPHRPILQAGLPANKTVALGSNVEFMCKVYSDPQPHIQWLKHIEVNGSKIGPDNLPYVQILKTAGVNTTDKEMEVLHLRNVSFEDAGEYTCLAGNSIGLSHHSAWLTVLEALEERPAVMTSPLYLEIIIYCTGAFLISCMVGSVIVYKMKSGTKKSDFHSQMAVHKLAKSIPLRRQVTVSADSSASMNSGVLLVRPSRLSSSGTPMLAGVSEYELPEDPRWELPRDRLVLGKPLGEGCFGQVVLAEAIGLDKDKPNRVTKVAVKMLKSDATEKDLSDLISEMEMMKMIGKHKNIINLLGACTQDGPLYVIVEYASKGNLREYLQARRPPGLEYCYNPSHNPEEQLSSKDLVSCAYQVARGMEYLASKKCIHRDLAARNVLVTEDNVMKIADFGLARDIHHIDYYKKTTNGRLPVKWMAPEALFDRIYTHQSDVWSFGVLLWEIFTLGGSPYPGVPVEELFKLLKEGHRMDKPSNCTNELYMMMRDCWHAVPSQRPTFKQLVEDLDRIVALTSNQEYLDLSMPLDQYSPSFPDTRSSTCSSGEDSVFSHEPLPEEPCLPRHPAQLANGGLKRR

Row | Sequence | SH2 binding enrichment [1] | SH2 binding enrichment [2] | SH2 binding enrichment [3] | phosphorylation enrichment [4] | phosphorylation enrichment [5] | phosphorylation enrichment [6] | phosphorylation enrichment [7] | phosphorylation enrichment [8] | phosphorylation enrichment [9] | phosphorylation enrichment [10] | phosphorylation enrichment [11] | phosphorylation enrichment [12] | phosphorylation enrichment [13] | phosphorylation enrichment [14] | phosphorylation enrichment [15] | phosphorylation enrichment [16]
1 | KDHPDYKFQPR [SOX10_Y171_YF] | 0.71 | 0.946 | 0.498 | 0.48 | 0.519 | 0.468 | 0.573 | 0.745 | 0.44 | 0.694 | 0.487 | 0.466 | 0.453 | 0.543 | 0.501 | 0.566
2 | TYTVSYLPDMS [FLNC_Y1602] | 0.623 | 0.792 | 0.375 | 0.582 | 0.512 | 0.733 | 0.55 | 0.874 | 0.491 | 1.05 | 0.568 | 0.528 | 0.561 | 0.656 | 0.705 | 0.903
3 | FRPPFYHRDCM [HGD_Y334_N337D_YF] | 1.06 | 1.03 | 1.02 | 0.507 | 0.558 | 0.471 | 0.735 | 1.1 | 0.577 | 0.895 | 0.459 | 0.611 | 0.477 | 0.724 | 0.659 | 0.942
4 | RRNEIYEIKVD [LGR5_Y387_H383R] | 0.692 | 0.986 | 0.426 | 5.36 | 0.923 | 0.468 | 0.574 | 1.36 | 0.757 | 1.09 | 5.59 | 0.751 | 4.83 | 0.771 | 1.4 | 0.669
5 | DRLASYPDKVR [KRT14_Y129_L130P] | 0.587 | 0.901 | 0.461 | 0.387 | 0.417 | 0.383 | 0.482 | 0.516 | 0.373 | 0.508 | 0.371 | 0.354 | 0.372 | 0.391 | 0.356 | 0.508
6 | FQKDVYNIPPS [NEDD9_Y177_D178N_YF] | 0.913 | 1 | 0.479 | 1.31 | 0.47 | 0.883 | 0.525 | 0.572 | 0.371 | 0.613 | 2.54 | 0.437 | 2.21 | 0.468 | 0.411 | 1.75
7 | NQNIGYKLGHR [KCNN3_Y268] | 0.782 | 1 | 0.481 | 0.396 | 0.339 | 0.344 | 0.313 | 0.49 | 0.322 | 0.402 | 0.361 | 0.324 | 0.398 | 0.358 | 0.303 | 0.391
8 | AKLNIYKRKVE [VWA3B_Y918] | 0.664 | 0.854 | 0.517 | 0.307 | 0.331 | 0.448 | 0.91 | 0.504 | 0.34 | 0.486 | 0.53 | 0.309 | 0.4 | 0.422 | 0.305 | 0.603
9 | KLVQLYDVCTK [BTK_Y461_G462D] | 0.865 | 0.984 | 0.881 | 4.92 | 0.58 | 7.27 | 1.25 | 1.03 | 2.56 | 0.994 | 1.37 | 12.1 | 1.56 | 0.742 | 11.7 | 0.79
10 | GEVLVYAEDPA [FLNA_Y319_V320A] | 1 | 0.874 | 0.549 | 0.543 | 0.496 | 0.408 | 0.496 | 1.05 | 0.385 | 1.21 | 0.593 | 0.607 | 0.553 | 0.704 | 0.53 | 0.814
11 | KQRSDYARELE [MYH3_Y1140] | 0.859 | 1.01 | 0.512 | 0.393 | 0.331 | 0.38 | 0.625 | 0.789 | 0.358 | 0.636 | 0.417 | 0.38 | 0.362 | 0.481 | 0.435 | 0.596
12 | MDDKEYFSVHN [MET_Y1234_Y1230D_YF] | 0.443 | 0.808 | 0.442 | 0.452 | 0.743 | 0.447 | 0.757 | 1.03 | 0.434 | 1.43 | 0.411 | 0.492 | 0.435 | 0.919 | 0.587 | 1.02
13 | AFDNLYFWDQD [ERBB2_Y1221_YF] | 0.59 | 0.865 | 0.495 | 4.26 | 6.87 | 5.13 | 0.981 | 1.93 | 1.68 | 2.1 | 5.76 | 1.42 | 5.12 | 6.95 | 1.25 | 1.56
14 | SVVVPYGPPEV [TP53_Y220_E221G] | 0.671 | 0.835 | 0.537 | 0.41 | 0.57 | 0.476 | 0.601 | 0.739 | 0.402 | 0.75 | 0.46 | 0.472 | 0.425 | 0.556 | 0.543 | 0.689
15 | IHSGIYFKPES [L2HGDH_Y102_YF] | 0.829 | 0.747 | 0.777 | 2.14 | 0.702 | 6.44 | 8.52 | 0.887 | 0.497 | 1.39 | 1.72 | 0.996 | 1.96 | 0.744 | 0.674 | 2.59
16 | QEGPEYWDQNT [HLA-A_Y83_E87N] | 0.702 | 0.834 | 0.419 | 0.632 | 0.711 | 0.625 | 1.25 | 1.42 | 0.802 | 1.5 | 0.6 | 0.898 | 0.546 | 1.14 | 0.719 | 1.36
17 | LARDMDDKEYY [MET_Y1230_Y1230D] | 0.716 | 0.742 | 0.759 | 0.723 | 0.867 | 0.489 | 1.2 | 1.64 | 0.643 | 1.87 | 0.691 | 0.828 | 0.531 | 1.19 | 1.13 | 1.37

Row | Sequence | SH2 binding enrichment [1] | SH2 binding enrichment [2] | SH2 binding enrichment [3] | phosphorylation enrichment [4] | phosphorylation enrichment [5] | phosphorylation enrichment [6] | phosphorylation enrichment [7] | phosphorylation enrichment [8] | phosphorylation enrichment [9] | phosphorylation enrichment [10] | phosphorylation enrichment [11] | phosphorylation enrichment [12] | phosphorylation enrichment [13] | phosphorylation enrichment [14] | phosphorylation enrichment [15] | phosphorylation enrichment [16]
18 | KRISCYEASYQ [PFKFB3_Y194] | 0.582 | 0.67 | 0.667 | 0.529 | 0.447 | 0.493 | 0.74 | 0.947 | 0.494 | 0.896 | 0.452 | 0.522 | 0.467 | 0.656 | 0.484 | 0.749
19 | RMLRKYQELMS [KRT74_Y425_E424K] | 0.608 | 0.712 | 0.438 | 0.43 | 0.556 | 0.485 | 0.455 | 0.673 | 0.522 | 0.643 | 0.509 | 0.419 | 0.447 | 0.402 | 0.397 | 0.5
20 | GGGMFYPLDLF | 0.749 | 1.07 | 0.532 | 0.499 | 0.405 | 0.372 | 0.627 | 1.1 | 0.405 | 0.942 | 0.453 | 0.503 | 0.388 | 0.693 | 0.454 | 0.891
21 | THQKSYQPGRK [CEFIP_Y210_N208K] | 0.408 | 0.887 | 0.514 | 0.52 | 0.433 | 0.308 | 0.35 | 0.472 | 0.464 | 0.437 | 0.371 | 0.273 | 0.322 | 0.362 | 0.432 | 0.349
22 | MARDIYRASFF [ALK_Y1278_YF] | 0.76 | 0.843 | 0.52 | 0.661 | 0.435 | 0.472 | 3.1 | 0.797 | 0.375 | 0.67 | 0.566 | 0.425 | 0.597 | 0.449 | 0.434 | 0.608
23 | RFWPRYVKVGS [NOG_Y172] | 0.429 | 0.701 | 0.446 | 0.726 | 0.487 | 0.46 | 0.691 | 0.624 | 0.726 | 1.36 | 0.68 | 0.532 | 0.535 | 0.751 | 0.478 | 0.622
24 | RPSRQYATLDV [SCAMP3_Y35] | 6.79 | 0.899 | 9.6 | 0.376 | 0.37 | 0.379 | 0.381 | 0.461 | 0.313 | 0.373 | 0.315 | 0.331 | 0.319 | 0.336 | 0.33 | 0.42
25 | AKGMKYLASKK [MET_Y1194] | 0.557 | 0.975 | 0.553 | 0.394 | 0.341 | 0.335 | 0.445 | 0.536 | 0.379 | 0.482 | 0.354 | 0.244 | 0.406 | 0.311 | 0.324 | 0.489
26 | DVSVVCSEVKT [FCRL4_Y493_Y493C] | 0.581 | 1.1 | 0.594 | 0.635 | 0.625 | 0.456 | 0.867 | 1.3 | 0.537 | 1.15 | 0.681 | 0.617 | 0.594 | 0.838 | 0.614 | 0.995
27 | DSILVYQGKEQ [USH2A_Y1909] | 0.595 | 0.707 | 0.493 | 0.621 | 0.434 | 0.333 | 0.536 | 0.761 | 0.414 | 0.717 | 0.433 | 0.451 | 0.515 | 0.533 | 0.43 | 0.734
28 | VRQQDYKKVEE [HADHA_Y283_V282D] | 0.532 | 1.02 | 0.414 | 0.482 | 0.514 | 0.419 | 0.423 | 0.604 | 0.376 | 0.783 | 0.417 | 0.517 | 0.43 | 0.442 | 0.561 | 0.564
29 | IGNGYYFRVFS [MYBPC3_Y1136] | 0.861 | 0.977 | 0.561 | 0.557 | 0.514 | 0.449 | 0.967 | 1.43 | 0.556 | 1.34 | 0.496 | 0.729 | 0.359 | 0.947 | 0.667 | 1.44
30 | KNNSIYVLANI [VNN1_Y134_V136L] | 1.67 | 1.14 | 0.796 | 1.15 | 0.947 | 1.95 | 1.05 | 1.24 | 2.7 | 1.17 | 1.14 | 0.793 | 1.58 | 1.08 | 0.668 | 1.16
31 | ALAAPYVLYPS [CEFIP_Y1332_G1337S] | 0.804 | 1.03 | 0.762 | 0.628 | 2.02 | 0.721 | 0.583 | 0.811 | 0.581 | 0.786 | 0.697 | 0.652 | 6.33 | 1.28 | 0.473 | 0.856
32 | VQEDIYDEFVE [ALDH2_Y332] | 0.408 | 0.752 | 0.437 | 1.15 | 0.459 | 0.542 | 0.859 | 1.3 | 0.658 | 1.2 | 1.89 | 0.728 | 1.87 | 0.731 | 0.715 | 1.34
33 | GEDEPYSEPYA [APBA1_Y183] | 0.742 | 0.903 | 0.582 | 0.477 | 0.516 | 0.531 | 0.845 | 1.19 | 0.618 | 1.35 | 0.55 | 0.542 | 0.551 | 0.756 | 0.673 | 1.15
